# Assay results from the supplement of paper PMC7125110.
# ± gives the standard error. Fewer inactive variants are shown than the library holds.
# B1: glmS ribozyme (parent)
# chain: AUAAAAGCGCCAGAACUACAGAAAUGUAGUUGACGAGGAGGAGGUUUAUCGAAUUUUCGGCGGAUGCCUCCAAA
# Assays:
# Conditions in all cases: with glucosamine-6-phosphate
# [1] = variants of: B1; assay: self-cleavage kobs at 40 uM GlcN6P; higher = faster cleavage; RNA array
# In short: (§1)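 In situ transcription by E. coli RNA polymerase produced barcoded ribozyme variants on sequenced MiSeq chips, and a hybridised Cy3 probe tracked them at 37 °C. Glucosamine-6-phosphate was flowed in at 40 μM to 10 mM in HEPES/KCl/Mg(OAc)2 buffer. kcat and KM were taken from weighted Michaelis–Menten fits of kobs values from exponential decay fits.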
# [2] = variants of: B1; assay: self-cleavage kobs at 160 uM GlcN6P; higher = faster cleavage; RNA array
# In short: as §1
# [3] = variants of: B1; assay: self-cleavage kobs at 640 uM GlcN6P; higher = faster cleavage; RNA array
# In short: as §1
# [4] = variants of: B1; assay: self-cleavage kobs at 2500 uM GlcN6P; higher = faster cleavage; RNA array
# In short: as §1
# [5] = variants of: B1; assay: self-cleavage kobs at 10000 uM GlcN6P; higher = faster cleavage; RNA array
# In short: as §1
Variant,self-cleavage kobs at 40 uM GlcN6P [1],self-cleavage kobs at 160 uM GlcN6P [2],self-cleavage kobs at 640 uM GlcN6P [3],self-cleavage kobs at 2500 uM GlcN6P [4],self-cleavage kobs at 10000 uM GlcN6P [5]
G7C A42G,< 1e-05 s⁻¹,< 1e-05 s⁻¹,< 1e-05 s⁻¹,< 1e-05 s⁻¹,< 1e-05 s⁻¹
A6G C71A,< 1e-05 s⁻¹,< 1e-05 s⁻¹,,,
G7A A12G U47A,< 1e-05 s⁻¹,,,< 1e-05 s⁻¹,
A6U A48G,< 1e-05 s⁻¹,< 1e-05 s⁻¹,,< 1e-05 s⁻¹,< 1e-05 s⁻¹
A1C U56G,0.000433 ± 9.4e-05 s⁻¹,,,,0.0185 ± 0.0058 s⁻¹
A6G U56A U65C,< 1e-05 s⁻¹,,,,
G7A C10G C50U,< 1e-05 s⁻¹,,,,
C8A A36G,< 1e-05 s⁻¹,< 1e-05 s⁻¹,< 1e-05 s⁻¹,< 1e-05 s⁻¹,< 1e-05 s⁻¹
C8A A36C,< 1e-05 s⁻¹,< 1e-05 s⁻¹,,< 1e-05 s⁻¹,< 1e-05 s⁻¹
C8A G66C,< 1e-05 s⁻¹,,,< 1e-05 s⁻¹,
G7A A14C G32U G40A,< 1e-05 s⁻¹,,,< 1e-05 s⁻¹,
C8A G35C C67A,< 1e-05 s⁻¹,< 1e-05 s⁻¹,< 1e-05 s⁻¹,,
A6C A33G,< 1e-05 s⁻¹,,< 1e-05 s⁻¹,,< 1e-05 s⁻¹
C8A A48C G59U,< 1e-05 s⁻¹,,,,< 1e-05 s⁻¹
C8G A48U C71G,< 1e-05 s⁻¹,,,,< 1e-05 s⁻¹
A6G A48U G66U U69C,< 1e-05 s⁻¹,,,,< 1e-05 s⁻¹
C8G G41U,< 1e-05 s⁻¹,< 1e-05 s⁻¹,< 1e-05 s⁻¹,< 1e-05 s⁻¹,< 1e-05 s⁻¹
C8G U31C A39G,< 1e-05 s⁻¹,,,,
C8G C16A A42U U65A,< 1e-05 s⁻¹,,,,< 1e-05 s⁻¹
C8U A52G G63U,< 1e-05 s⁻¹,,,,< 1e-05 s⁻¹
A5U G40C,0.000123 ± 2.6e-05 s⁻¹,,,0.000574 ± 0.00021 s⁻¹,
A6C C8A,< 1e-05 s⁻¹,< 1e-05 s⁻¹,< 1e-05 s⁻¹,< 1e-05 s⁻¹,< 1e-05 s⁻¹
G9A A12U G13C G40C,< 1e-05 s⁻¹,,,,< 1e-05 s⁻¹
G7U A33G,< 1e-05 s⁻¹,< 1e-05 s⁻¹,< 1e-05 s⁻¹,< 1e-05 s⁻¹,

Variant,self-cleavage kobs at 40 uM GlcN6P [1],self-cleavage kobs at 160 uM GlcN6P [2],self-cleavage kobs at 640 uM GlcN6P [3],self-cleavage kobs at 2500 uM GlcN6P [4],self-cleavage kobs at 10000 uM GlcN6P [5]
C8U C68G,0.000619 ± 0.00023 s⁻¹,,,,0.000231 ± 5.8e-05 s⁻¹
C8A C50U G51C A53C U65A,< 1e-05 s⁻¹,,< 1e-05 s⁻¹,,
A6U G29A G63U,< 1e-05 s⁻¹,,,,
C8G G51U A64G,< 1e-05 s⁻¹,,,,< 1e-05 s⁻¹
G7C G38U,< 1e-05 s⁻¹,< 1e-05 s⁻¹,< 1e-05 s⁻¹,,< 1e-05 s⁻¹
C8A A14G U57C,< 1e-05 s⁻¹,,< 1e-05 s⁻¹,< 1e-05 s⁻¹,
C8G G13U,< 1e-05 s⁻¹,< 1e-05 s⁻¹,< 1e-05 s⁻¹,< 1e-05 s⁻¹,< 1e-05 s⁻¹
C8A G59C,< 1e-05 s⁻¹,,< 1e-05 s⁻¹,< 1e-05 s⁻¹,
C8U U30G A36G C68U,< 1e-05 s⁻¹,< 1e-05 s⁻¹,,,
G7A A12U A52U,< 1e-05 s⁻¹,,,,
C8A U56A,< 1e-05 s⁻¹,< 1e-05 s⁻¹,< 1e-05 s⁻¹,< 1e-05 s⁻¹,< 1e-05 s⁻¹
G7C G62U,< 1e-05 s⁻¹,,,< 1e-05 s⁻¹,< 1e-05 s⁻¹
C8A C10A G44U U46A C67A,< 1e-05 s⁻¹,,,< 1e-05 s⁻¹,
A6G A14G G29C G38A A39G G40A A42U U54C U56A G60C,< 1e-05 s⁻¹,,,,
C8U U57G,< 1e-05 s⁻¹,,,< 1e-05 s⁻¹,
C8G G59C,< 1e-05 s⁻¹,,< 1e-05 s⁻¹,,< 1e-05 s⁻¹
C8A C67G C68G,5.09e-05 ± 1.9e-05 s⁻¹,,0.000231 ± 5.6e-05 s⁻¹,,4.91e-05 ± 1.2e-05 s⁻¹
G7U G35C U55G A64C,< 1e-05 s⁻¹,,,,
C8G U56G C70U C71A,< 1e-05 s⁻¹,< 1e-05 s⁻¹,< 1e-05 s⁻¹,< 1e-05 s⁻¹,
C8G A14G U55G,< 1e-05 s⁻¹,,,< 1e-05 s⁻¹,< 1e-05 s⁻¹
G7C C11U G40U C71A,< 1e-05 s⁻¹,,< 1e-05 s⁻¹,< 1e-05 s⁻¹,< 1e-05 s⁻¹
A6U G13C,< 1e-05 s⁻¹,,< 1e-05 s⁻¹,< 1e-05 s⁻¹,
C8G A39G G59C,< 1e-05 s⁻¹,,,,< 1e-05 s⁻¹
C8A G43U,< 1e-05 s⁻¹,,,< 1e-05 s⁻¹,< 1e-05 s⁻¹
